Values of other authors in patent publication US20200179530A1, “TARGETED DELIVERY OF THERAPEUTIC AGENTS AND IMAGING REAGENTS TO PANCREATIC CANCER CELLS” (UNIVERSITY OF MIAMI, priority 2016, published 2020).

Substance: AvidinOX: avidin variant containing aldehyde groups, generated by ligand-assisted sugar oxidation of avidin by sodium periodate
- half-life in tissue: weeks

Substance: native avidin: native avidin, comparator for AvidinOX half-life
- half-life (tissue): about two
